Experimental data as given in paper PMC12197871 (Protein Science : A Publication of the Protein Society, 2025).

Target: GsLDH (Geobacillus stearothermophilus, UniProt P00344)
Assay: GsLDH kinetic studies
Assay type: biochemical

Molecule	fold higher substrate inhibition (lower K i) compared to the WT (with FBP) [fold]	k cat (with FBP (5 mM)) [s⁻¹]	k cat/K m or k cat/K 0.5 (with FBP (5 mM)) [M⁻¹ s⁻¹]	k cat (without FBP) [s⁻¹]	k cat/K m or k cat/K 0.5 (without FBP) [M⁻¹ s⁻¹]	n (Hill coefficient) (without FBP)
Gln189Leu: GsLDH single mutant Gln189Leu, located at the dimer–dimer interface (protein, UniProt P00344 1-317, looked up, variant Q189L) L-lactate dehydrogenase: MKNNGGARVVVIGAGFVGASYVFALMNQGIADEIVLIDANESKAIGDAMDFNHGKVFAPKPVDIWHGDYDDCRDADLVVICAGANQKPGETRLDLVDKNIAIFRSIVESVMASGFQGLFLVATNPVDILTYATWKFSGLPHERVIGSGTILDTARFRFLLGEYFSVAPQNVHAYIIGEHGDTELPVWSLAYIGVMPIRKLVESKGEEAQKDLERIFVNVRDAAYQIIEKKGATYYGIAMGLARVTRAILHNENAILTVSAYLDGLYGERDVYIGVPAVINRNGIREVIEIELNDDEKNRFHHSAATLKSVLARAFTR	20	83	106000 ± 19000	73 ± 12	32000 ± 4000	1.4 ± 0.1
Triple mutant: previously reported GsLDH triple mutant with substitutions Arg104Cys, Gln189Leu and Asn293Ser (protein, UniProt P00344 1-317, looked up, variant R104C Q189L N293S) L-lactate dehydrogenase: MKNNGGARVVVIGAGFVGASYVFALMNQGIADEIVLIDANESKAIGDAMDFNHGKVFAPKPVDIWHGDYDDCRDADLVVICAGANQKPGETRLDLVDKNIAIFCSIVESVMASGFQGLFLVATNPVDILTYATWKFSGLPHERVIGSGTILDTARFRFLLGEYFSVAPQNVHAYIIGEHGDTELPVWSLAYIGVMPIRKLVESKGEEAQKDLERIFVNVRDAAYQIIEKKGATYYGIAMGLARVTRAILHNENAILTVSAYLDGLYGERDVYIGVPAVINRNGIREVIEIELSDDEKNRFHHSAATLKSVLARAFTR		94	156000 ± 59000	57 ± 8	141000 ± 18000	
WT: wild‐type L‐lactate dehydrogenase from Geobacillus stearothermophilus (UniProt P00344), N‐terminal His‐tagged (protein, UniProt P00344 1-317, looked up, N-terminal His-tag) L-lactate dehydrogenase: MKNNGGARVVVIGAGFVGASYVFALMNQGIADEIVLIDANESKAIGDAMDFNHGKVFAPKPVDIWHGDYDDCRDADLVVICAGANQKPGETRLDLVDKNIAIFRSIVESVMASGFQGLFLVATNPVDILTYATWKFSGLPHERVIGSGTILDTARFRFLLGEYFSVAPQNVHAYIIGEHGDTELPVWSQAYIGVMPIRKLVESKGEEAQKDLERIFVNVRDAAYQIIEKKGATYYGIAMGLARVTRAILHNENAILTVSAYLDGLYGERDVYIGVPAVINRNGIREVIEIELNDDEKNRFHHSAATLKSVLARAFTR		64	144000 ± 67000	118 ± 34	43000 ± 13000	1.5 ± 0.1
